Laboratory results from the DeepSol protein solubility set.

Test: soluble on expression in E. coli; label from the status in PepcDB or PDB records

Row | Sequence | soluble on expression in E. coli
1 | MTEDERFAWLQLAFTPYIGAESFLLLMRRFGSAQNALSAPAEQVAALIRHKQALEAWRNAEKRALARQAAEAALEWEMRDGCRLMLLQDEDFPEMLTQGLTAPPVLFLRGNVQLLHKPSAAIVGSRHATPQAMRIAKDFGKSLGGKGIPVVSGMASGIDTAAHQGALQAEGGTIAVWGTGIDRIYPPVNKNLAYEIAEKGLIVSEFPIGTRPYAGNFPRRNRLIAALSQVTLVVEAALESGSLITARLAAEMGREVMAVPGSIDNPHSKGCHKLIKDGAKLVECLDDILNECPGLLQNTGASSYSINKGIPEKRITAVQTASDQLSLPEGKMPSEKTENRPVGGSILDRMGFDPVHPDVLAGQLAMPAADLYAALLELELDGSVAAMPGGRYQRIRT | not soluble
2 | MTEDNIAPITSVKRLVTDKCTYKDNELLTKYSYENAVVTKTASGRFDVTPTVQDYVFKLDFEKKPEKLGIMLIGLGGNNGSTLVASVLANKHNVEFQTKAKGVKQPNYFGSMTQCSTLKLGIDAEGNDVYAPFNSLLPMVSPKHFVVSGWDINNADLYEAMQRSQVLEYDLQQRLKAKMSLVKPLPSIYYPDFIAANQDERANQCINLDEKGNVTTRGKWTHLQRIRRDIQNFKEENALDKVIVLWTANTERYVEVSPGVNDTMENLLQSIKNDHEEIAPSTIFAAASILEGVPYINGSPQNTFVPGLVQLAEHEGTFIAGDDLKSGQTKLKSVLAQFLVDAGIKPVSIASYNHLGNNDGYNLSAPKQFRSKEISKSSVIDDIIASNDILYNDKLGKKVDHCIVIKYMKPVGDSKVAMDEYYSELMLGGHNRISIHNVCEDSLLATALIIDLLVMTEFCTRVSYKKVDPVKEDAGKFENFYPVLTFLSYWLKAPLTRPGFHPVNGLNKQRTALENFLRLLIGLPSQNELRFEERLL | soluble
3 | MTEEVGQKLLESLSLFKLGDIGYARIECELLTTFLEEQLENNLDSLSIHELSTNLIRNRICCREFIESRPAKKWVFLIFRLARTLFRDKTRIATFHSVNLHSEFVQVFWRNLTYQTKSYRNCKFQTFQFIASRFLRSEHDWNVTVVNCLNVTQKLIDNGENARKFVDCNLEDAVLVLLATRQMTVLQHSLEILGRLSDWSTTCRENLLCISLLRILSCEEQAREQIRIYDGVPTLLGLLSIKNSRLQWHVAWTLAQLAEQHETSLEIAQLGGISLIFAAISNPKPPGKAVGDWVAMLTGLTALLAQLAQASSNQQLMSNANGVYILGKLLAIKKNVTTDETIDSWDLLQCSIFRVLRLMYTFERSRQLLKKVLPTEIFEKFVDVGNYNSVLTDYDQIAKMYDNLIEENIEIMKDWETVNERRQAVGEVGEYELLDQLGAGAFGCVYTVRKKAQSHSENPAKLLALKEIFMTNLNDRESDKSFGDMISEVKIIKQQLRHPNIVRYRRIFVENHRLYIVMDLIQGCSLRDLIITMKEKKGNFEEKKIWAMVVQMMLALRYLHKEKQIVHRDLKPNNIMMTTDERVVITDFGLAKQKGPEYLKSAAGTIIYSCPEIVQNLPYGEKADIWSFGCCIYEMCQLQPVFHSTNMLTLAMQIVEAKYDPLNEMWSDDLRFLITSCLAPDPSARPDILKVSGMCGVRLLEYLDDVARQQASTSDMTASQSSYNIKIDESPSSLNSSTSSYKRPGRSSKTSGSGKLPPINPAPRRNHSMSAGETPRPSSIVCLPRITDKYSVMFPSAPSAIPSRRRVQTCSTEHPARSSSSTELKVSKQSDGLTVSSNVLRQIQDPVLTILNQIHRILVVTDKETISTSMNHQRRLVEMFRKNLLGRENDAVQMKTHLRKLAAESPEEIQMNLGFSDFRPVLVQSHINGYQKDQKVTKITYEQLSACIECLIAENPAAK | soluble
4 | MTEFDNLTWLHGKPQGSGLLKANPEDFVVVEDLGFTPDGEGEHILLRILKNGCNTRFVADALAKFLKIHAREVSFAGQKDKHAVTEQWLCARVPGKEMPDFSAFQLEGCKVLEYARHKRKLRLGALKGNAFTLVLREISDRRDVETRLQAIRDGGVPNYFGAQRFGIGGSNLQGALRWAQSNAPVRDRNKRSFWLSAARSALFNQIVHQRLKKPDFNQVVDGDALQLAGRGSWFVATSEELPELQRRVDEKELMITASLPGSGEWGTQRAALAFEQDAIAQETVLQSLLLREKVEASRRAMLLYPQQLSWNWWDDVTVELRFWLPAGSFATSVVRELINTMGDYAHIAELEHHHHHH | soluble
5 | MTEIERKFLVATFPDGELHAVPLRQGYLTTPTDSIELRLRQQGTEYFMTLKSEGGLSRQEYEIQIDVTQFEMLWPATEGRRVEKTRYSGKLPDGQLFELDVFAGHLSPLMLVEVEFLSEDAAQAFIPPPWFGEEVTEDKRYKNKALALSIP | soluble
6 | MTELERHLLNALEQLQQDYMQRLNEWESAFVELQKMFSLTQRDNAMLNEQVMQLSQQVQHLSERTERLSQLYSENRRLEHHHHHH | not soluble
7 | MTEMAKGSVTHQRLIALLSQEGADFRVVTHEAVGKCEAVSEIRGTALGQGAKALVCKVKGNGVNQHVLAILAADQQADLSQLASHIGGLRASLASPAEVDELTGCVFGAIPPFSFHPKLKLVADPLLFERFDEIAFNAGMLDKSVILKTADYLRIAQPELVNFRRTA | soluble
8 | MTENTLDPAADLLERLGDKRFRTILADPPWQFQNRTGKMAPEHKRLNRYGTMSLEAIAGLPVERLTADTAHLYLWVPNALLLEGLKVMEAWGFTYKTNLVWHKIRKDGGPDGRGVGFYFRNVTELVLFGVRGKNARTLAAGRRQVNFLATRKREHSRKPDEMYGIIESCSPGPYLELFARGARDRWSVWGNEADENYYPRWNTYANHSQAEICPFEAAALEHHHHHH | soluble
9 | MTEQSVKNTPQHETQSKPKQKTVKLIIKRQDTSDSKPYEETFEIPYRENLNVIACLMEIRRNPVNIKGEKTTPVVWDMNCLEEVCGACSMVINGRARQSCSAIVDQLEQPIRLEPMNTFPVIRDLQVDRSRMFDNLKRMKAWIPIDGTYDLGPGPRMPEKKRQTAYELSKCMTCGVCLEVCPNVTENNKFVGAQAISQVRLFNLHPTGSMTKDERLNALMGTGGLQQCGNSQNCVNACPKGIPLTTSIAAMNRETTFHMFKSFFGSDHEVE | not soluble
10 | MTESPTTHHGAAPPDSVATPVRPWSEFRLTPAEAAAAAALAARCAQRYDETDGPEFLLDAPVIAHELPKRLRTFMARARLDAWPHALVVRGNPVDDAALGSTPVHWRTARTPGSRPLSFLLMLYAGLLGDVFGWATQQDGRVVTDVLPIKGGEHTLVSSSSRQELGWHTEDAFSPYRADYVGLLSLRNPDGVATTLAGVPLDDLDERTLDVLFQERFLIRPDDSHLQVNNSTAQQGRVEFEGIAQAADRPEPVAILTGHRAAPHLRVDGDFSAPAEGDEEAAAALGTLRKLIDASLYELVLDQGDVAFIDNRRAVHGRRAFQPRYDGRDRWLKRINITRDLHRSRKAWAGDSRVLGQR | soluble
11 | MTESTLAFVFPGQGSQSLGMLAELSELHPQIRETFAEASEGAGVDLWALSQGGPEEMLNRTEYTQPALLAAGVAVWRLWTAQRGQRPALLAGHSLGEYTALVAAGVLSLHDGAHLVRLRGQFMQAAAPAGVGAMAAVLGAEDAVVLEVCAEAAGSQVVVPANFNSPGQIVIGGDAAAVDRALALLAERGVRKAVKLAVSVPSHTPLMRDAANQLGEAMAGLSWHAPQIPVVQNVDARVHDGSAAIRQALVEQLYLPVQWTGCVQALASQGITRIAECGPGKVLSGLIKRIDKSLDARPLATPADYAGALDAWAH | soluble
12 | MTETIKVSESLELHAVAENHVKPLYQLICKNKTWLQQSLNWPQFVQSEEDTRKTVQGNVMLHQRGYAKMFMIFKEDELIGVISFNRIEPLNKTAEIGYWLDESHQGQGIISQALQALIHHYAQSGELRRFVIKCRVDNPQSNQVALRNGFILEGCLKQAEFLNDAYDDVNLYARIIDSQ | soluble
13 | MTFLLKSCSTFFEKFCCCCKKYESEWNTQLESISLFAARRGFTDGEPYLILFGLCPNANKTFIVSENKLSDSNICLGDFLVACSDSPKNLKNFKKVPYPLDVTVEGDYAIISYSSMEAIKDISGILIFQTTDFGPIRSLNQNLDLDEYNITVHATGVSASGHVIELRAKAQPASNYRNSSVYENPSFLDDLSDEPLEIKKTISNNSLDGFSMEQLIQQLPTLELGEAENSVRVPQNLSAPRLMKAFVYSVHQYPHTKFHFLWICDIMEKSILKLPQYDFELGYFFEGIFKQKSNGKWECEQYNNKIEPLINGTVVINEYNGNEKVELTTTVTNYKPKNNTRKWPEVEAKYLGVVYDRHNKLPKNCEGQKVEVQMMKIDKEQYGWVITDILNE | not soluble
14 | MTFRNCVAVDLGASSGRVMLARYERECRSLTLREIHRFNNGLHSQNGYVTWDVDSLESAIRLGLNKVCAAGIAIDSIGIDTWGVDFVLLDQQGQRVGLPVAYRDSRTNGLMAQAQQQLGKRDIYQRSGIQFLPFNTLYQLRALTEQQPELIPHIAHALLMPDYFSYRLTGKMNWEYTNATTTQLVNINSDDWDESLLAWSGANKAWFGRPTHPGNVIGHWICPQGNEIPVVAVASHDTASAVIASPLNGSRAAYLSSGTWSLMGFESQTPFTNDTALAANITNEGGAEGRYRVLKNIMGLWLLQRVLQERQINDLPALIAATQALPACRFIINPNDDRFINPDEMCSEIQAACREMAQPIPESDAELARCIFDSLALLYADVLHELAQLRGEDFSQLHIVGGGCQNTLLNQLCADACGIRVIAGPVEASTLGNIGIQLMTLDELNNVDDFRQVVSTTANLTTFTPNPDSEIAHYVALIHSTRQTKELCA | soluble
15 | MTGFAPQAGLPSHSVQVADHFDGNSPRGSPMSSGGHPVDRNRGLQPQKEAFSGPAAGKPFHPQALSKYSRHYSPEDELSAEAQPIAAYKIVSQSNKQLLAGSVSVTSLSSRTTELATADPFALAPFPSKAGKQKP | soluble
16 | MTGTLAPEAMPLLSVRKLTKLFGNFAACNGIDLDIAPGEIHALLGENGAGKSTLVKMLFGVLSPTEGDIIWQGQPVSVGSPSEARRLGIGMVFQHFSLFEALTVAENIALSLDPKISLKEIAREAEQLSRAYGLPLDPNAHVADLSVGERQRIEIVRALLQNPRLIILDEPTSVLTPQEADKLFETLAKLKAEGRSVLYISHRLEEVQRICDRATVLRHGKVTGACDPRKETPASLARMMVGSDVASVSRATGEALGAPQIEVMGLSVAPRTPFAVALKSISMNVRAGEVLAIAGVAGNGQGELFDALSGEYPVYNNDAIHLRGKPVGRLGINGRRLMGAGFVPEERHGHAAVPGMSLSDNLLLARSRSDRKAFLTGGFLRIVRGSTIKAAARRISETMDVRKSGADPLAGSLSGGNLQKFIVGRELDRQPSVLVVNQPTWGVDAGAASRIRQALVDLAKAGSAVIVISQDLDEIFEVATNIAVISDGMLSEAHPVEEMTLEKIGLLMGGIHTSQSGAAQHAHLEHHHHHH | not soluble
17 | MTGVRQDAWTKEEDELLANVVLQYIREGGTQLEAFAEVGRRLSRTAAACGFRWNSCVRKQYKEEIEQAKQERKMRKKETPSTKESEGQAKVETAVKSHLSWAEVLAFLQAEEQKARDARRTADENRALKNDMEQLQQMVTKLQMEKESLQKQLAAIQEEYKTLLSIMERARKMVTDSGKPAPNAVAEGVDEG | not soluble
18 | MTHRPAPDDMAELIYTSGTTGNPKGVILTHRNLVANILQVNRHIPVVTPDFSFLSLLPLSHMFEQMGGFFTPLYRGAAIVYIRTLKPSAIMEALGEEDIYAIIAVPRLLQLLKGSVERELEAKGLGSIFRWLLKVGERMSRGGRSVLFRPIQRKFGRNFALFVSGGAPLDPEVFRFWNGLGFRVVEGYGLTECSPVLTANTMERQVMGSVGLEHHHHHH | soluble
